Reference: the supplement of paper PMC10567573

B1: ZNF232 (parent)
chain: HSGEKPFICKECGKAYGWCSELIR
B2: FUT8 (parent)
chain: YPSYKVREKIETVKYPTYPEAEK

Variants of: B1
Assay: protein stability index of a GFP-peptide fusion (GPS, HEK-293T) (PSI 1-6); higher = more stable
Conditions: c terminus: a fixed tail appended
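Also: lentivirally expressed fusions sorted by FACS into six bins by GFP to DsRed ratio, PSI derived from sequencing read proportions per bin multiplied by bin number.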

Variant	protein stability index
NSGEKPFICKECGKAYGWCSELIR [H1N]	2.15
ISGEKPFICKECGKAYGWCSELIR [H1I]	2.21
RSGEKPFICKECGKAYGWCSELIR [H1R]	2.45
KSGEKPFICKECGKAYGWCSELIR [H1K]	2.12
QSGEKPFICKECGKAYGWCSELIR [H1Q]	2.32
VSGEKPFICKECGKAYGWCSELIR [H1V]	1.88
MSGEKPFICKECGKAYGWCSELIR [H1M]	1.16
ASGEKPFICKECGKAYGWCSELIR [H1A]	1.89
WSGEKPFICKECGKAYGWCSELIR [H1W]	1.81
ESGEKPFICKECGKAYGWCSELIR [H1E]	2.4
YSGEKPFICKECGKAYGWCSELIR [H1Y]	2.28
LSGEKPFICKECGKAYGWCSELIR [H1L]	1.9
TSGEKPFICKECGKAYGWCSELIR [H1T]	1.82
GSGEKPFICKECGKAYGWCSELIR [H1G]	2.55
CSGEKPFICKECGKAYGWCSELIR [H1C]	1.61
DSGEKPFICKECGKAYGWCSELIR [H1D]	2.31
FSGEKPFICKECGKAYGWCSELIR [H1F]	2.76
PSGEKPFICKECGKAYGWCSELIR [H1P]	2.37
SSGEKPFICKECGKAYGWCSELIR [H1S]	2.33
HKGEKPFICKECGKAYGWCSELIR [S2K]	1.74
HEGEKPFICKECGKAYGWCSELIR [S2E]	2.35
HWGEKPFICKECGKAYGWCSELIR [S2W]	1.68

Variant	protein stability index
HPGEKPFICKECGKAYGWCSELIR [S2P]	2.33
HHGEKPFICKECGKAYGWCSELIR [S2H]	1.91
HNGEKPFICKECGKAYGWCSELIR [S2N]	2.58
HTGEKPFICKECGKAYGWCSELIR [S2T]	1.76
HAGEKPFICKECGKAYGWCSELIR [S2A]	1.7
HFGEKPFICKECGKAYGWCSELIR [S2F]	2.87
HQGEKPFICKECGKAYGWCSELIR [S2Q]	2.04
HDGEKPFICKECGKAYGWCSELIR [S2D]	2.51
HCGEKPFICKECGKAYGWCSELIR [S2C]	2.12
HGGEKPFICKECGKAYGWCSELIR [S2G]	2.12
HVGEKPFICKECGKAYGWCSELIR [S2V]	1.84
HIGEKPFICKECGKAYGWCSELIR [S2I]	2.21
HRGEKPFICKECGKAYGWCSELIR [S2R]	1.64
HLGEKPFICKECGKAYGWCSELIR [S2L]	2.4
HMGEKPFICKECGKAYGWCSELIR [S2M]	2.07
HYGEKPFICKECGKAYGWCSELIR [S2Y]	1.81
HSGGKPFICKECGKAYGWCSELIR [E4G]	1.71
HSGAKPFICKECGKAYGWCSELIR [E4A]	1.55
HSGIKPFICKECGKAYGWCSELIR [E4I]	1.27
HSGFKPFICKECGKAYGWCSELIR [E4F]	1.37
HSGLKPFICKECGKAYGWCSELIR [E4L]	2.76
HSGCKPFICKECGKAYGWCSELIR [E4C]	1.9

Variant	protein stability index
HSGDKPFICKECGKAYGWCSELIR [E4D]	1.91
HSGKKPFICKECGKAYGWCSELIR [E4K]	1.54
HSGHKPFICKECGKAYGWCSELIR [E4H]	2.17
HSAEKPFICKECGKAYGWCSELIR [G3A]	1.86
HSWEKPFICKECGKAYGWCSELIR [G3W]	1.86
HSNEKPFICKECGKAYGWCSELIR [G3N]	2.07
HSVEKPFICKECGKAYGWCSELIR [G3V]	2
HSHEKPFICKECGKAYGWCSELIR [G3H]	1.47
HSIEKPFICKECGKAYGWCSELIR [G3I]	1.87
HSPEKPFICKECGKAYGWCSELIR [G3P]	2.22
HSYEKPFICKECGKAYGWCSELIR [G3Y]	1.88
HSLEKPFICKECGKAYGWCSELIR [G3L]	1.57
HSTEKPFICKECGKAYGWCSELIR [G3T]	2.07
HSSEKPFICKECGKAYGWCSELIR [G3S]	2.14
HSCEKPFICKECGKAYGWCSELIR [G3C]	2.5
HSDEKPFICKECGKAYGWCSELIR [G3D]	2.32
HSQEKPFICKECGKAYGWCSELIR [G3Q]	1.97
HSEEKPFICKECGKAYGWCSELIR [G3E]	2.29
HSKEKPFICKECGKAYGWCSELIR [G3K]	1.99
HSFEKPFICKECGKAYGWCSELIR [G3F]	2.13
HSREKPFICKECGKAYGWCSELIR [G3R]	1.61
HSMEKPFICKECGKAYGWCSELIR [G3M]	2.49

Variants of: B2
Assay: as above
Conditions: c terminus: native

Variant	protein stability index
YPSYKVREKIETVKYPRYPEAEK [T17R]	4.34
YPSYKVREKIETVKYPKYPEAEK [T17K]	4.69
YPSYKVREKIETVKYPWYPEAEK [T17W]	1.94
YPSYKVREKIETVKYPGYPEAEK [T17G]	4.02
YPSYKVREKIETVKYPVYPEAEK [T17V]	4
YPSYKVREKIETVKYPYYPEAEK [T17Y]	2.87
YPSYKVREKIETVKYPLYPEAEK [T17L]	3.6
YPSYKVREKIETVKYPSYPEAEK [T17S]	4.79
YPSYKVREKIETVKYPNYPEAEK [T17N]	4.75
YPSYKVREKIETVKYPPYPEAEK [T17P]	4.46
YPSYKVREKIETVKYPFYPEAEK [T17F]	3.45
YPSYKVREKIETVKYPHYPEAEK [T17H]	4.41
YPSYKVREKIETVKYPMYPEAEK [T17M]	3.77
YPSYKVREKIETVKYPEYPEAEK [T17E]	4.43
YPSYKVREKIETVKYPIYPEAEK [T17I]	3.7
YPSYKVREKIETVKYPQYPEAEK [T17Q]	4.3
YPSYKVREKIETVKYPTYPEALK [E22L]	1.97
YPSYKVREKIETVKYPTYPEAAK [E22A]	3.28
YPSYKVREKIETVKYPTYPEAKK [E22K]	4.54
YPSYKVREKIETVKYPTYPEAFK [E22F]	4.11
YPSYKVREKIETVKYPTYPEAVK [E22V]	1.9
YPSYKVREKIETVKYPTYPEANK [E22N]	4.36
YPSYKVREKIETVKYPTYPEAMK [E22M]	3.45
YPSYKVREKIETVKYPTYPEASK [E22S]	4.04
YPSYKVREKIETVKYPTYPEAQK [E22Q]	4.44
YPSYKVREKIETVKYPTYPEAHK [E22H]	4.28
YPSYKVREKIETVKYPTYPEAWK [E22W]	2.91
YPSYKVREKIETVKYPTYPEAPK [E22P]	4.46
YPSYKVREKIETVKYPTYPEACK [E22C]	1.66
YPSYKVREKIETVKYPTYPEAYK [E22Y]	2.93
